Biological target: T1, AgrA (6xHis-SaAgrA) (Staphylococcus aureus, UniProt Q5HEG2 1-238)
T1 sequence: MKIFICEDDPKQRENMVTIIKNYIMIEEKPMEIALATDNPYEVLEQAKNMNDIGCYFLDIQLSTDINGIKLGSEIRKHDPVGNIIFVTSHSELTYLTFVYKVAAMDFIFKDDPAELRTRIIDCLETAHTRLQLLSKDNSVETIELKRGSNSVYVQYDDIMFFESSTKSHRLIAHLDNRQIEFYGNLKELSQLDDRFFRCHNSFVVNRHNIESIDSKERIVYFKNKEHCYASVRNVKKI
Test: SPR; non-CoAlated; ka 5.75e3 1/Ms, kd 1.01e-2 1/s; SPR (Biacore 2000, SA chip, ~500 RU DNA): 20 mM HEPES pH 7.6, 250 mM KCl, 10% glycerol; 30 uL/min; temperature not stated; 1:1 Langmuir fit
Conditions: protein: recombinant; tags: 6xHis; chain copies: 2; label: 5' biotin (immobilized on SA chip); blunt

B1: P2 promoter (dsDNA)
DNA 1: TAACAGTTAAGTATTTATTTCCTACAGTTAGGCA
DNA 2: TGCCTAACTGTAGGAAATAAATACTTAACTGTTA
Kd: 1750 ± 580 nM
